This data set deals with the molecule itself. As to the kind of experiment: crystal structure; wild-type JIP1-SH3 at 20 mg/ml; crystals in 0.1 M HEPES pH 7.5, 1-5% PEG 400, 2-2.5 M ammonium sulfate, 20 °C, hanging drop; molecular replacement with PDB 2FPE chains A-B.

B1: SH3 domain of the JNK-interacting protein 1 (JIP1), wild type (domain or fragment, human)
chain: GHMEQTHRAIFRFVPRHEDELELEVDDPLLVELQAEDYWYEAYNMRTGARGVFPAYYAIEVTK
notes: N-terminal extension left on the protein after cleavage by the TEV protease; Called dimeric in the legends; The wild-type structure was solved by molecular replacement with chains A-B of PDB 2FPE; also called JIP1-SH3; JIP1-SH3(WT); not shown: His6, N-terminal, cleaved
As for B1, the binding result is “binds”.

Source of the values: paper PMC8866124, “Visualizing protein breathing motions associated with aromatic ring flipping” (Nature, 2022).
